Earlier results as cited in paper PMC3505834.

Target: C3b C3b (Homo sapiens) (UniProt P01024)
Sequence (P01024 566-670): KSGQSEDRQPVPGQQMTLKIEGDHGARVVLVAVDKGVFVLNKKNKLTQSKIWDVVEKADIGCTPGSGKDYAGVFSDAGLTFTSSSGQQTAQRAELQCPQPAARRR

CD46, sequence (P15529 35-343): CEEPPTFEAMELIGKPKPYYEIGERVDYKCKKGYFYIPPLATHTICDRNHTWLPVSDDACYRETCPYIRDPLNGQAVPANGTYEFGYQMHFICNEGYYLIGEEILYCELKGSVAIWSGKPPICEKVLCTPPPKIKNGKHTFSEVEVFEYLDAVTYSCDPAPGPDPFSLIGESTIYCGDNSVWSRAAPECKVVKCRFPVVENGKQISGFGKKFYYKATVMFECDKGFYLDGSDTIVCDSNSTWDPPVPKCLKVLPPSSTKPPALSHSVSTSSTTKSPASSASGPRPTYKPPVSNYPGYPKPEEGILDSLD

Substance: CD46 (from UniProt P15529)
- Kd: 1000 nM
